Measured values reported in US20110269938A1 (COMMONWEALTH SCIENTIFIC AND INDUSTRIAL RESEARCH ORGANISATION, published 2011).
Residue numbers refer to the chain shown, from its start.

B1: Aβ-IgNAR 37F-2 (Asp23Asn) (VNAR)
VNAR: AWVDQTPRTATKETGESLTINCVLRDASFELKDTGWYRTKLGSTNEQSISIGGRYVETVNKGSKSFSLRISDLRVEDSGTYKCQAFYVFFAENVGSNKGAIIGLMVGGVVIGGEKGAGTALTVKA
notes: also called familial mutant Asp23Asn
B2: Aβ-IgNAR 37K-1 (Glu22Gln) (VNAR)
VNAR: B1 VNAR with E92Q, N93D
notes: also called familial mutant Glu22Gln
B3: Aβ-IgNAR 37L-2 (Ala21Gly) (VNAR)
VNAR: B1 VNAR with A91G, N93D
notes: also called familial mutant Ala21Gly
B4: Aβ-IgNAR-G6 (VNAR)
VNAR: AWVDQTPRTATKETGESLTINCVLRDASFELKDTGWYRTKLGSTNEQSISIGGRYVETVNKGSKSFSLRISDLRVEDSGTYKCQAFYGGGLVFFAEDVGSNKGAIIGLMVGGVVIAGGGGEKGAGTALTVKA
notes: No crystals obtained; also called 37Q-6; glycine-6 version
B5: Aβ-IgNAR 37R-1 (ΔGlu22) (VNAR)
VNAR: AWVDQTPRTATKETGESLTINCVLRDASFELKDTGWYRTKLGSTNEQSISIGGRYVETVNKGSKSFSLRISDLRVEDSGTYKCQAFYVFFADVGSNKGAIIGLMVGGVVIGGEKGAGTALTVKA
notes: also called familial mutant ΔGlu22
B6: Aβ-IgNAR-G3 (VNAR)
VNAR: AWVDQTPRTATKETGESLTINCVLRDASFELKDTGWYRTKLGSTNEQSISIGGRYVETVNKGSKSFSLRISDLRVEDSGTYKCQAFYGLVFFAEDVGSNKGAIIGLMVGGVVIAGGGEKGAGTALTVKA
notes: No crystals obtained; also called 37A-1; glycine-3 version
B7: IgNAR single variable domain antibody 12Y-2 (VNAR)
VNAR: AWVDQTPRTATKETGESLTINCVLRDASFELKDTGWYRTKLGSTNEQSISIGGRYVETVNKGSKSFSLRISDLRVEDSGTYKCQAFYSLPLGDYNYSLLFRGEKGAGTALTVKA
notes: Scaffold without Aβ insert, used as the monomeric control; also called IgNAR wt; wild type IgNAR

How the values were obtained:
[1] = molecular target: the molecule itself; test: self-association of familial mutation variants
[2] = molecular target: the molecule itself; test: Western blot of periplasmic fraction, self-association
[3] = molecular target: the molecule itself; test: Western blot of periplasmic fraction (self-association)

| Protein | binding result [1] | further results |
| --- | --- | --- |
| B1 | binds | – |
| B2 | binds | – |
| B3 | binds | – |
| B4 | – | binding result [2]: binds |
| B5 | binds | – |
| B6 | – | binding result [2]: binds |
| B7 | – | binding result [3]: no binding |
